Article PMC5795786 (Genes & Development, 2017)

T1: Phosphatase-treated Dbf4 purified from yeast cells (S. cerevisiae (endogenous in yeast), UniProt P32325 1-704, treated with λ-phosphatase)
T1 sequence (looked up): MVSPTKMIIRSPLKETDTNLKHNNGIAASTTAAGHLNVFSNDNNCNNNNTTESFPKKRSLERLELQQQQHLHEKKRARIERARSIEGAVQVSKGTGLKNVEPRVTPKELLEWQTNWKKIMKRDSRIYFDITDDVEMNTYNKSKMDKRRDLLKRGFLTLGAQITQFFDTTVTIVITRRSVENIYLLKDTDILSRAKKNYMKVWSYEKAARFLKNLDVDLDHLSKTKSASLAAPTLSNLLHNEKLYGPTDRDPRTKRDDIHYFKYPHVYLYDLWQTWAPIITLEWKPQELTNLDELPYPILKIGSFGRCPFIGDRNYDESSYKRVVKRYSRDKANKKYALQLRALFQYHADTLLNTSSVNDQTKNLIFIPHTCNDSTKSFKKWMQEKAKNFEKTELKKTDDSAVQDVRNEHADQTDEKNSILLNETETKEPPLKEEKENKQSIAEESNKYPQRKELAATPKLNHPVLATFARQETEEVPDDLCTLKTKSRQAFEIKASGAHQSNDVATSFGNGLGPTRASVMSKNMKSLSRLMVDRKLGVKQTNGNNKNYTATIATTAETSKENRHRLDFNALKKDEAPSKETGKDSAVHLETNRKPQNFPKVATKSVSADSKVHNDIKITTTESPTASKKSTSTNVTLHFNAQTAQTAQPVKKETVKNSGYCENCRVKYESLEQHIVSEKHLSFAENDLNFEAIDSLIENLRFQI

T2: Purified recombinant Dbf4 (6His-Dbf4p, pET28a-Dbf4) (S. cerevisiae (budding yeast), UniProt P32325 1-704)
T2 sequence (looked up): T1 sequence (looked up)

T3: GST-Dbf4 (S. cerevisiae (budding yeast), UniProt P32325 1-704)
T3 sequence (looked up): T1 sequence (looked up)

B1: GST-Fkh1 (natural protein, S. cerevisiae (budding yeast), UniProt P40466 1-484, looked up)
chain: MSVTSREQKFSGKYSSYTAQDRQGLVNAVTCVLSSSSDPVAVSSDYSNSLSIAREVNAYAKIAGCDWTYYVQKLEVTIGRNTDSLNLNAVPGTVVKKNIDIDLGPAKIVSRKHAAIRFNLESGSWELQIFGRNGAKVNFRRIPTGPDSPPTVLQSGCIIDIGGVQMIFILPEQETIISDYCLNHLMPKLLSTYGTNGNNNPLLRNIIEGSTYLREQRLQEEARLQQLDHLHTPLSSSSDVNPIGDPHGDTIMMEEDEEDENYTRGGIRPNTYTSSSNNAVTNGNVPHIENPSDLSLDENRYIKPPQSYASMITQAILSTPEGSISLADIYKFISDNYAFYRFSQMAWQNSVRHNLSLNKAFEKVPKRAGQQGKGMNWKISDEVRRDFLNKWNAGKLSKIRRGASVTRQLQLHMSKFGEIPAPESSSIDPRGIKAQKVKKSLQATSSILGESAPQLQRTQLTGQISTTTSMDVTTNANVNNSSLS
B2: Purified recombinant Fkh1 (in vitro recruitment assay) (natural protein, S. cerevisiae (budding yeast), UniProt P40466 1-484, looked up)
chain: B1 chain
B3: His6-Sld3 (natural protein, S. cerevisiae (budding yeast), UniProt P53135 1-668, looked up)
chain: METWEVIASVKEATKGLDLSLDHPLIIKSEDVPSNILQLLQQKNRRQLKHICMKSRKEYFLLEEYGPGFWVKWPYNYFNGYSLPERRTEVVTTVERERAKRETLKTWDELKFKELLHLWSEEPKGSCKLEKDKDLKLDMNPPDMKGESKINDYYSDPKEYIESKYYDALFSIHTPLAYFVKSNLVRLKNTCRTKYGSDSYKIAYQAMLQKFLLSIVQFKDRHDNRLLLEPFSSPIADEKRKNCLTKFVIQDENKNSSTIADLCVVLKSREIKLQILLLLEIIGLNDLDWNFRDFEKKYKLKLKKRSLNLTKKGLVRRRSKKKTSEKDKGIERITTSLDYCEQLDLYLDRACILDILLSSETPNPDAIEASNGTIQEHKKNILDKSKEASLVGFINYVLIPYFNKKVPHAVEFIIQKLKGPSMRPKRALKKVNDSTNVSSPNTVETYNRLSTSQRASRSSIINSVPSSPALRRVDANLFSRKSIASPTPELLNSRTNSNLNEFLESETRSLKRPSQLGRTKSDLTMNHLQKRQFSVSDLSTTRVPNSSTITLKTPFSHSTINAYKTMNNSFRRVGKRKDINETIRLHERVDSEENVQVQATPAVKKRTVTPNKKAQLQSIIESPLNFKDDDTHEGRKNTSNITSTPTNKPPENSSKRRVRRRLFAPEST
B4: GST-Dbf4 (1-390) (domain or fragment, S. cerevisiae (budding yeast), UniProt P32325 1-390, looked up)
chain: MVSPTKMIIRSPLKETDTNLKHNNGIAASTTAAGHLNVFSNDNNCNNNNTTESFPKKRSLERLELQQQQHLHEKKRARIERARSIEGAVQVSKGTGLKNVEPRVTPKELLEWQTNWKKIMKRDSRIYFDITDDVEMNTYNKSKMDKRRDLLKRGFLTLGAQITQFFDTTVTIVITRRSVENIYLLKDTDILSRAKKNYMKVWSYEKAARFLKNLDVDLDHLSKTKSASLAAPTLSNLLHNEKLYGPTDRDPRTKRDDIHYFKYPHVYLYDLWQTWAPIITLEWKPQELTNLDELPYPILKIGSFGRCPFIGDRNYDESSYKRVVKRYSRDKANKKYALQLRALFQYHADTLLNTSSVNDQTKNLIFIPHTCNDSTKSFKKWMQEKAKNFE

Assays:
[1] = molecular target: B1; test: pull-down
[2] = molecular target: T1, Phosphatase-treated Dbf4 purified from …; test: pull-down
[3] = molecular target: T2, Purified recombinant Dbf4 (6His-Dbf4p, …); test: in vitro origin recruitment assay on DNA beads
[4] = molecular target: T3, GST-Dbf4; test: pull-down
[5] = molecular target: B3; test: pull-down

## KNSGYCENCRVKYESLEQHIVSEKHLSFAENDLNFEAIDSLIENLRFQI (domain or fragment, S. cerevisiae (budding yeast), UniProt P32325 656-704, looked up) [6His-Dbf4 (656-704)]
[1]
  binding result: binds

## B1
[2]
  binding result: binds

## B2
[3]
  binding result: binds

## B3
[4]
  binding result: binds

## B4
[5]
  binding result: binds
